The source of these data is paper PMC11098746 (2024).

B1: ADP299 (protein)
chain: MDLRQFLMCLSLCTAFALSKPTEKKDRVHHEPQLSDKVHNDAQSFDYDHDAFLGAEEAKTFDQLTPEESKERLGKIVSKIDGDKDGFVTVDELKDWIKFAQKRWIYEDVERQWKGHDLNEDGLVSWEEYKNATYGYVLDDPDPDDGFNYKQMMVRDERRFKMADKDGDLIATKEEFTAFLHPEEYDYMKDIVVQETMEDIDKNADGFIDLEEYIGDMYSHDGNTDEPEWVKTEREQFVEFRDKNRDGKMDKEETKDWILPSDYDHAEAEARHLVYESDQNKDGKLTKEEIVDKYDLFVGSQATDFGEALVRHDEF
modifications: bait human Fc-tagged dimer
B2: ADP347 (protein)
chain: MAATLGPLGSWQQWRRCLSARDGSRMLLLLLLLGSGQGPQQVGAGQTFEYLKREHSLSKPYQGVGTGSSSLWNLMGNAMVMTQYIRLTPDMQSKQGALWNRVPCFLRDWELQVHFKIHGQGKKNLHGDGLAIWYTKDRMQPGPVFGNMDKFVGLGVFVDTYPNEEKQQERVFPYISAMVNNGSLSYDHERDGRPTELGGCTAIVRNLHYDTFLVIRYVKRHLTIMMDIDGKHEWRDCIEVPGVRLPRGYYFGTSSITGDLSDNHDVISLKLFELTVERTPEEEKLHRDVFLPSVDNMKLPEMTAPLPPLSGLA
modifications: bait human Fc-tagged dimer
B3: ADP111 (protein)
chain: MVLLRVLILLLSWAAGMGGQYGNPLNKYIRHYEGLSYNVDSLHQKHQRAKRAVSHEDQFLRLDFHAHGRHFNLRMKRDTSLFSDEFKVETSNKVLDYDTSHIYTGHIYGEEGSFSHGSVIDGRFEGFIQTRGGTFYVEPAERYIKDRTLPFHSVIYHEDDINYPHKYGPQGGCADHSVFERMRKYQMTGVEEVTQIPQEEHAANGPELLRKKRTTSAEKNTCQLYIQTDHLFFKYYGTREAVIAQISSHVKAIDTIYQTTDFSGIRNISFMVKRIRINTTADEKDPTNPFRFPNIGVEKFLELNSEQNHDDYCLAYVFTDRDFDDGVLGLAWVGAPSGSSGGICEKSKLYSDGKKKSLNTGIITVQNYGSHVPPKVSHITFAHEVGHNFGSPHDSGTECTPGESKNLGQKENGNYIMYARATSGDKLNNNKFSLCSIRNISQVLEKKRNNCFVESGQPICGNGMVEQGEECDCGYSDQCKDECCFDANQPEGRKCKLKPGKQCSPSQGPCCTAQCAFKSKSEKCRDDSDCAREGICNGFTALCPASDPKPNFTDCNRHTQVCINGQCAGSICEKYGLEECTCASSDGKDDKELCHVCCMKKMDPSTCASTGSVQWSRHFSGRTITLQPGSPCNDFRGYCDVFMRCRLVDADGPLARLKKAIFSPELYENIAEW
modifications: bait human Fc-tagged dimer
B4: ADP319 (protein)
chain: MVSSGCRMRSLWFIIVISFLPNTEGFSRAALPFGLVRRELSCEGYSIDLRCPGSDVIMIESANYGRTDDKICDADPFQMENTDCYLPDAFKIMTQRCNNRTQCIVVTGSDVFPDPCPGTYKYLEVQYECVPYIFVCPGTLKAIVDSPCIYEAEQKAGAWCKDPLQAADKIYFMPWTPYRTDTLIEYASLEDFQNSRQTTTYKLPNRVDGTGFVVYDGAVFFNKERTRNIVKFDLRTRIKSGEAIINYANYHDTSPYRWGGKTDIDLAVDENGLWVIYATEQNNGMIVISQLNPYTLRFEATWETVYDKRAASNAFMICGVLYVVRSVYQDNESETGKNSIDYIYNTRLNRGEYVDVPFPNQYQYIAAVDYNPRDNQLYVWNNNFILRYSLEFGPPDPAQVPTTAVTITSSAELFKTIISTTSTTSQKGPMSTTVAGSQEGSKGTKPPPAVSTTKIPPITNIFPLPERFCEALDSKGIKWPQTQRGMMVERPCPKGTRGTASYLCMISTGTWNPKGPDLSNCTSHWVNQLAQKIRSGENAASLANELAKHTKGPVFAGDVSSSVRLMEQLVDILDAQLQELKPSEKDSAGRSYNKLQKREKTCRAYLKAIVDTVDNLLRPEALESWKHMNSSEQAHTATMLLDTLEEGAFVLADNLLEPTRVSMPTENIVLEVAVLSTEGQIQDFKFPLGIKGAGSSIQLSANTVKQNSRNGLAKLVFIIYRSLGQFLSTENATIKLGADFIGRNSTIAVNSHVISVSINKESSRVYLTDPVLFTLPHIDPDNYFNANCSFWNYSERTMMGYWSTQGCKLVDTNKTRTTCACSHL
modifications: bait human Fc-tagged dimer
B5: ADP292 (protein)
chain: MARPGSAQRWAAVAGRWGCRLLALLLLVPGPGGASEITFELPDNAKQCFYEDIAQGTKCTLEFQVITGGHYDVDCRLEDPDGKVLYKEMKKQYDSFTFTASKNGTYKFCFSNEFSTFTHKTVYFDFQVGEDPPLFPSENRVSALTQMESACVSIHEALKSVIDYQTHFRLREAQGRSRAEDLNTRVA
modifications: bait human Fc-tagged dimer
B6: ADP395 (protein)
chain: FVNKDQIAKDVKQFYDQALQQAVVDDDANNAKAVVKTFHETLDCCGSSTLTALTTSVLKNNLCPSGSNIISNLFKEDCHQKIDDLFSGK
modifications: bait human Fc-tagged dimer
B7: ADP270 (protein)
chain: ALSPKCLDWWQEGPMYQIYPRSFKDSNKDGNGDLKGIQDKLDYITALNIKTVWITSFYKSSLKDFRYGVEDFREVDPIFGTMEDFENLVAAIHDKGLKLIIDFIPNHTSDKHIWFQLSRTRTGKYTDYYIWHDCTHENGKTIPPNNWLSVYGNSSWHFDEVRNQCYFHQFMKEQPDLNFRNPDVQEEIKEILRFWLTKGVDGFSLDAVKFLLEAKHLRDEIQVNKTQIPDTVTQYSELYHDFTTTQVGMHDIVRSFRQTMDQYSTEPGRYRFMGTEAYAESIDRTVMYYGLPFIQEADFPFNNYLSMLDTVSGNSVYEVITSWMENMPEGKWPNWMIGGPDSSRLTSRLGNQYVNVMNMLLFTLPGTPITYYGEEIGMGNIVAANLNESYDINTLRSKSPMQWDNSSNAGFSEASNTWLPTNSDYHTVNVDVQKTQPRSALKLYQDLSLLHANELLLNRGWFCHLRNDSHYVVYTRELDGIDRIFIVVLNFGESTLLNLHNMISGLPAKMRIRLSTNSADKGSKVDTSGIFLDKGEGLIFEHNTKNLLHRQTAFRDRCFVSNRACYSSVLNILYTSC
modifications: bait human Fc-tagged dimer
B8: ADP332 (protein)
chain: MAPPGRRECPFPSWRFPGLLLAAMVLLLYSFSDACEEPPTFEAMELIGKPKPYYEIGERVDYKCKKGYFYIPPLATHTICDRNHTWLPVSDDACYRETCPYIRDPLNGQAVPANGTYEFGYQMHFICNEGYYLIGEEILYCELKGSVAIWSGKPPICEKVLCTPPPKIKNGKHTFSEVEVFEYLDAVTYSCDPAPGPDPFSLIGESTIYCGDNSVWSRAAPECKVVKCRFPVVENGKQISGFGKKFYYKATVMFECDKGFYLDGSDTIVCDSNSTWDPPVPKCLKVLPPSSTKPPALSHSVSTSSTTKSPASSASGPRPTYKPPVSNYPGYPKPEEGILDSLDV
modifications: bait human Fc-tagged dimer
B9: ADP372 (protein)
chain: MARAMAAAWPLLLVALLVLSWPPPGTGDVVVQAPTQVPGFLGDSVTLPCYLQVPNMEVTHVSQLTWARHGESGSMAVFHQTQGPSYSESKRLEFVAARLGAELRNASLRMFGLRVEDEGNYTCLFVTFPQGSRSVDIWLRVLAKPQNTAEVQKVQLTGEPVPMARCVSTGGRPPAQITWHSDLGGMPNTSQVPGFLSGTVTVTSLWILVPSSQVDGKNVTCKVEHESFEKPQLLTVNLTVYYPPEVSISGYDNNWYLGQNEATLTCDARSNPEPTGYNWSTTMGPLPPFAVAQGAQLLIRPVDKPINTTLICNVTNALGARQAELTVQVKEGPPSEHSGISRN
modifications: bait human Fc-tagged dimer
B10: ADP293 (protein)
chain: MALLPRLLLLLLLVFPATVLFRGGPRGLLAVAQDLTEDEETVEDSIIEDEDDEAEVEEDEPTDLVEDKEEEDVSGEPEASPSADTTILFVKGEDFPANNIVKFLVGFTNKGTEDFIVESLDASFRYPQDYQFYIQNFTALPLNTVVPPQRQATFEYSFIPAEPMGGRPFGLVINLNYKDLNGNVFQDAVFNQTVTVIEREDGLDGET
modifications: bait human Fc-tagged dimer
B11: ADP312 (protein)
chain: MALDRPGEGATMLKTFTVLLFCIRMSLGMTSIVMDPQPELWIESNYPQAPWENITLWCRSPSRISSKFLLLKDKTQMTWIRPSHKTFQVSFLIGALTESNAGLYRCCYWKETGWSKPSKVLELEAPGQLPKPIFWIQAETPALPGCNVNILCHGWLQDLVFMLFKEGYAEPVDYQVPTGTMAIFSIDNLTPEDEGVYICRTHIQMLPTLWSEPSNPLKLVVAGLYPKPTLTAHPGPIMAPGESLNLRCQGPIYGMTFALMRVEDLEKSFYHKKTIKNEANFFFQSLKIQDTGHYLCFYYDASYRGSLLSDVLKIWVTDTFPKTWLLARPSAVVQMGQNVSLRCRGPVDGVGLALYKKGEDKPLQFLDATSIDDNTSFFLNNVTYSDTGIYSCHYLLTWKTSIRMPSHNTVELMVVDKPPKPSLSAWPSTVFKLGKAITLQCRVSHPVLEFSLEWEERETFQKFSVNGDFIISNVDGKGTGTYSCSYRVETHPNIWSHRSEPLKLMGPAGYLTWNYVLN
modifications: bait human Fc-tagged dimer
B12: ADP334 (protein)
chain: MASGRDERPPWRLGRLLLLMCLLLLGSSARAAHIKKAEATTTTTSAGAEAAEGQFDRYYHEEELESALREAAAAGLPGLARLFSIGRSVEGRPLWVLRLTAGLGSLIPEGDAGPDAAGPDAAGPLLPGRPQVKLVGNMHGDETVSRQVLIYLARELAAGYRRGDPRLVRLLNTTDVYLLPSLNPDGFERAREGDCGFGDGGPSGASGRDNSRGRDLNRSFPDQFSTGEPPALDEVPEVRALIEWIRRNKFVLSGNLHGGSVVASYPFDDSPEHKATGIYSKTSDDEVFKYLAKAYASNHPIMKTGEPHCPGDEDETFKDGITNGAHWYDVEGGMQDYNYVWANCFEITLELSCCKYPPASQLRQEWENNRESLITLIEKVHIGVKGFVKDSITGSGLENATISVAGINHNITTGRFGDFYRLLVPGTYNLTVVLTGYMPLTVTNVVVKEGPATEVDFSLRPTVTSVIPDTTEAVSTASTVAIPNILSGTSSSYQPIQPKDFHHHHFPDMEIFLRRFANEYPNITRLYSLGKSVESRELYVMEISDNPGVHEPGEPEFKYIGNMHGNEVVGRELLLNLIEYLCKNFGTDPEVTDLVHNTRIHLMPSMNPDGYEKSQEGDSISVIGRNNSNNFDLNRNFPDQFVQITDPTQPETIAVMSWMKSYPFVLSANLHGGSLVVNYPFDDDEQGLATYSKSPDDAVFQQIALSYSKENSQMFQGRPCKNMYPNEYFPHGITNGASWYNVPGGMQDWNYLQTNCFEVTIELGCVKYPLEKELPNFWEQNRRSLIQFMKQVHQGVRGFVLDATDGRGILNATISVAEINHPVTTYKTGDYWRLLVPGTYKITASARGYNPVTKNVTVKSEGAIQVNFTLVRSSTDSNNESKKGKGASSSTNDASDPTTKEFETLIKDLSAENGLESLMLRSSSNLALALYRYHSYKDLSEFLRGLVMNYPHITNLTNLGQSTEYRHIWSLEISNKPNVSEPEEPKIRFVAGIHGNAPVGTELLLALAEFLCLNYKKNPAVTQLVDRTRIVIVPSLNPDGRERAQEKDCTSKIGQTNARGKDLDTDFTNNASQPETKAIIENLIQKQDFSLSVALDGGSMLVTYPYDKPVQTVENKETLKHLASLYANNHPSMHMGQPSCPNKSDENIPGGVMRGAEWHSHLGSMKDYSVTYGHCPEITVYTSCCYFPSAARLPSLWADNKRSLLSMLVEVHKGVHGFVKDKTGKPISKAVIVLNEGIKVQTKEGGYFHVLLAPGVHNIIAIADGYQQQHSQVFVHHDAASSVVIVFDTDNRIFGLP
modifications: bait human Fc-tagged dimer

The target of this experiment is Circumsporozoite protein (CSP) (Plasmodium falciparum (isolate 3D7), UniProt Q7K740). Put plainly: AVEXIS screen signal:noise (double-corrected).
Chain of Circumsporozoite protein (CSP) (Q7K740 19-374): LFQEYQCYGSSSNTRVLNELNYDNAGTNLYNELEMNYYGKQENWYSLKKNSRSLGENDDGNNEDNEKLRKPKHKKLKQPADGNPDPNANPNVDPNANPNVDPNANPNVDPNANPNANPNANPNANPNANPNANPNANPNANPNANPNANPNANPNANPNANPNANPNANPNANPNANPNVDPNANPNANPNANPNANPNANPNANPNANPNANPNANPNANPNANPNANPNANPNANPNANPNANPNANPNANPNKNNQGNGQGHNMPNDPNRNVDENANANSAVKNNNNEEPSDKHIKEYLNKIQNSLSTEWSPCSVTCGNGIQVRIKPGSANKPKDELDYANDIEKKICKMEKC
Molecule B1 had a binding score of 1.11.

Molecule B2 displayed a binding score of 0.741.

Take B3: the binding score turned out to be 0.777.

Turning to B4, the binding score was 1.9.

B5 returned a binding score of 1.08.

The molecule B6 registered a binding score of 1.84.

Molecule B7 registered a binding score of 7.97.

As to B8, the binding score came out at 0.982.

As to B9, the binding score amounted to 1.04.

The molecule B10 displayed a binding score of 1.28.

The molecule B11 yielded a binding score of 0.61.

In turn, B12 registered a binding score of 1.2.
